Results on four molecules are retold here after PMC8643664.

Sequences and labels used below:
B1: FLAG-ORC1 (full-length) (natural protein)
chain: MAHYPTRLKTRKTYSWVGRPLLDRKLHYQTYREMCVKTEGCSTEIHIQIGQFVLIEGDDDENPYVAKLLELFEDDSDPPPKKRARVQWFVRFCEVPACKRHLLGRKPGAQEIFWYDYPACDSNINAETIIGLVRVIPLAPKDVVPTNLKNEKTLFVKLSWNEKKFRPLSSELFAELNKPQESAAKCQKPVRAKSKSAESPSWTPAEHVAKRIESRHSASKSRQTPTHPLTPRARKRLELGNLGNPQMSQQTSCASLDSPGRIKRKVAFSEITSPSKRSQPDKLQTLSPALKAPEKTRETGLSYTEDDKKASPEHRIILRTRIAASKTIDIREERTLTPISGGQRSSVVPSVILKPENIKKRDAKEAKAQNEATSTPHRIRRKSSVLTMNRIRQQLRFLGNSKSDQEEKEILPAAEISDSSSDEEEASTPPLPRRAPRTVSRNLRSSLKSSLHTLTKVPKKSLKPRTPRCAAPQIRSRSLAAQEPASVLEEARLRLHVSAVPESLPCREQEFQDIYNFVESKLLDHTGGCMYISGVPGTGKTATVHEVIRCLQQAAQANDVPPFQYIEVNGMKLTEPHQVYVQILQKLTGQKATANHAAELLAKQFCTRGSPQETTVLLVDELDLLWTHKQDIMYNLFDWPTHKEARLVVLAIANTMDLPERIMMNRVSSRLGLTRMCFQPYTYSQLQQILRSRLKHLKAFEDDAIQLVARKVAALSGDARRCLDICRRATEICEFSQQKPDSPGLVTIAHSMEAVDEMFSSSYITAIKNSSVLEQSFLRAILAEFRRSGLEEATFQQIYSQHVALCRMEGLPYPTMSETMAVCSHLGSCRLLLVEPSRNDLLLRVRLNVSQDDVLYALKDE
B2: FLAG-ORC1 (244–511) (domain or fragment)
chain: NPQMSQQTSCASLDSPGRIKRKVAFSEITSPSKRSQPDKLQTLSPALKAPEKTRETGLSYTEDDKKASPEHRIILRTRIAASKTIDIREERTLTPISGGQRSSVVPSVILKPENIKKRDAKEAKAQNEATSTPHRIRRKSSVLTMNRIRQQLRFLGNSKSDQEEKEILPAAEISDSSSDEEEASTPPLPRRAPRTVSRNLRSSLKSSLHTLTKVPKKSLKPRTPRCAAPQIRSRSLAAQEPASVLEEARLRLHVSAVPESLPCREQEF
B3: FLAG-ORC1 (2–511) (domain or fragment)
chain: AHYPTRLKTRKTYSWVGRPLLDRKLHYQTYREMCVKTEGCSTEIHIQIGQFVLIEGDDDENPYVAKLLELFEDDSDPPPKKRARVQWFVRFCEVPACKRHLLGRKPGAQEIFWYDYPACDSNINAETIIGLVRVIPLAPKDVVPTNLKNEKTLFVKLSWNEKKFRPLSSELFAELNKPQESAAKCQKPVRAKSKSAESPSWTPAEHVAKRIESRHSASKSRQTPTHPLTPRARKRLELGNLGNPQMSQQTSCASLDSPGRIKRKVAFSEITSPSKRSQPDKLQTLSPALKAPEKTRETGLSYTEDDKKASPEHRIILRTRIAASKTIDIREERTLTPISGGQRSSVVPSVILKPENIKKRDAKEAKAQNEATSTPHRIRRKSSVLTMNRIRQQLRFLGNSKSDQEEKEILPAAEISDSSSDEEEASTPPLPRRAPRTVSRNLRSSLKSSLHTLTKVPKKSLKPRTPRCAAPQIRSRSLAAQEPASVLEEARLRLHVSAVPESLPCREQEF
B4: FLAG-ORC1 (325–511) (domain or fragment)
chain: SKTIDIREERTLTPISGGQRSSVVPSVILKPENIKKRDAKEAKAQNEATSTPHRIRRKSSVLTMNRIRQQLRFLGNSKSDQEEKEILPAAEISDSSSDEEEASTPPLPRRAPRTVSRNLRSSLKSSLHTLTKVPKKSLKPRTPRCAAPQIRSRSLAAQEPASVLEEARLRLHVSAVPESLPCREQEF

The assay concerns the target TRF2 (45–244)-LacI. In words: lacO-LacI protein tethering assay.
Consider B1, for which the co-localization frequency is 26%. Regarding B2, the co-localization frequency turned out to be 90%. As to B3, the co-localization frequency came out at 73%.

Regarding B4, the co-localization frequency was 46%.
